Test results from US20190284262A1 (Memorial Sloan Kettering, published 2019).
Where two headings read alike, the source gives them in different places.

B1: EXT017-20 scFv phage clone (scFv)
scFv: QSVVTQPPSVSAAPGQKVTISCSGSSSNIGAGYDVHWYQQLPGTAPKLLIYGNSNRPSGVPDRFSGSKSGTSASLAITGLQAEDEADYYCQSYDSSLSGSVFGGGTKLTVLGSRGGGGSGGGGSGGGGSLEMAEVQLVQSGAEVKKPGSSVKVSCKASGGTFSSYAISWVRQAPGQGLEWMGGIIPIFGTANYAQKFQGRVTITADESTSTAYMELSSLRSEDTAVYYCARYSYKYGELDTWGQGTLVTVSSTSGQAGQHHHHHHGAYPYDVPDYAS
notes: full-length scFv with His+HA tags; also called EXT017-20 phage
B2: (FoxP4)_#4 (scFv)
scFv (VL-linker-VH-His/HA tag): QSVLTQPPSVSGAPGQRVTISCTGSNSNIGADFDVHWYQQLPGTAPKLLIYGNNNRPSGVPDRFSGSKSDTSASLAITGLQAEDEADYYCQSYDISLNGYVFGTGTKVTVLGSRGGGGSGGGGSGGGGSLEMAQVQLQQWGAGLLKPSETLSLTCAVSGGSFSDYYWSWIRQPPGKGLEWIGEITHTGSTNYNPSLKSRVTISVDTSKNHFSLNLTSVTAADTAVYYCARSNGFYYDTWGQGTLVTVSSTSGQAGQHHHHHHGAYPYDVPDYAS
notes: also called EXT018-4; EXT018-04 scFv phage clone
B3: Clone #5 (scFv)
scFv (VL-linker-VH-His/HA tag): QSALTQPPSASGSPGQSVTISCTGTSSDVGGYNYVSWYQQHPGKAPKLMIYEVSKRPSGVPDRFSGSKSGNTASLTVSGLQAEDEADYYCSSYAGSNTHVVFGGGTKLTVLGSRGGGGSGGGGSGGGGSLEMAEVQLVQSGAEVKKPGASVKISCKASRYTFTNYYIHWVRQAPGQGLEWMGIINPSGGSTTYPQNFQGRLTMTRDTSTSTVYMELSSLRSEDTAMYYCARGWSGYDPGDFWGQGTLVTVSSTSGQAGQHHHHHHGAYPYDVPDYAS
notes: also called EXT017-5; EXT017-5 scFv phage clone
B4: (FoxP4)_#2 (scFv)
scFv (VL-linker-VH-His/HA tag): QSVVTQPPSVSGAPGQRVTISCTGSSSNIGAGFDVHWYQQLPGTAPKLLIYGNSNRPSGVPDRFSGSKSATSASLAITGLQAEDEADYYCQSYDSSLSGVVFGGGTKLTVLGSRGGGGSGGGGSGGGGSLEMAQVQLVQSGAEVKKPGSSVKVSCKTSGGTFSSYAISWVRQAPGQGLEWMGGIIPIFGTANYAQRFQGRVTITADESTNTVYMELSSLRSEDTAVYYCARESWYLDEWGQGTLVTVSSTSGQAGQHHHHHHGAYPYDVPDYAS
notes: also called EXT018-2; EXT018-02 scFv phage clone
B5: (FoxP4)_#5 (scFv)
scFv (VL-linker-VH-His/HA tag): QSVLTQPPSVSVAPGKTAKITCGGDNIGSKTVHWYQQKPGQAPALLIYYDSDRPSGIPERFSGSNSGNTATLSISRVEAGDEAGYFCQVWDGSSDHVIFGGGTKLTVLGSRGGGGSGGGGSGGGGSLEMAQMQLVQSGGGVVQPGRSLRLSCAASGFTFSSYAMHWVRQAPGKGLEWVAVISYDGSNKYYADSVKGRFTISRDNSKNTLYLQMNSLRAEDTAVYYCARDRHDYVMDVWGKGTTVTVSSTSGQAGQHHHHHHGAYPYDVPDYAS
notes: also called EXT018-5; EXT018-05 scFv phage clone
B6: EXT017-32 mouse IgG1 (antibody, V domains shown)
VH: EVQLVESGGGVVQPGRSLRLSCAASGFTFNNHAMHWVRQAPGKGLEWVAVISFDGDDKFYADSVKGRFTISRDNSRNTLFLQMNNLRPEDTAVYYCSRDPYHFASGSYSYFDYWGQGTLVTVSS
VL: QSVLTQPPSVSVAPGKTARITCGGNNIGSKSVHWYQQKPGQAPVLVIYYDSDRPSGIPERFSGSNSGNTATLTISRVEAGDEADYYCQVWDSSSDHYVFGTGTKVTVLG
notes: Mouse IgG1 format of clone #32 made by Eureka Therapeutics; conjugated to APC for flow cytometry of Tregs; also called EXT017-32 mIgG; EXT017-32 mIgG1
B7: EXT017-32 human IgG1 (antibody, V domains shown)
VH: B6 VH
VL: B6 VL
notes: Full-length human IgG1 with matching human lambda or kappa light chain constant region; Fc-enhanced (afucosylated); also called EXT017-32 hIgG; EXT017-32-hIgG1
B8: Clone #23 (scFv)
scFv (VL-linker-VH-His/HA tag): SYELTQPPSVSVAPGQTAWITCGGNNIGSKSVHWYQQKPGQAPILVVYDDSDRPSGIPERVSGSNSGNTATLTISRVEAGDEADYYCQVWDSSSDRWVFGGGTKLTVLGSRGGGGSGGGGSGGGGSLEMAQMQLVQSGAEVKKPGASVKVSCKASGYTFTNYGISWVRQAPGQGLEWMGWISPYNGNTNYAQKLQGRVTMTTDTSTSTAYMELRNLRSDDTAVYYCARYWDSGYAYDEWGQGTLVTVSSTSGQAGQHHHHHHGAYPYDVPDYAS
notes: also called EXT017-23; EXT017-23 scFv phage clone
B9: Clone #10 (scFv)
scFv (VL-linker-VH-His/HA tag): QAVLTQPPSASGTPGQRVTISCSGGSSNIGVNPVNWYQQLPGTAPKLLIFANYQRPSGVPDRFSGSKSGTSASLAISGLQSDDEAHYYCSTWDDSLNAWLFGGGTKLTVLGSRGGGGSGGGGSGGGGSLEMAEVQLVQSGAEVKKPGDSLRISCQGSGYSFTSYYISWVRQMPGKGLEWMGNIDPSDSYTNYSPSFQGHVTMSVDKSISTAYLQWSSLKASDIAIYYCVRHGFSNSPRLWFDTWGQGTLVTVSSTSGQAGQHHHHHHGAYPYDVPDYAS
notes: also called EXT017-10; EXT017-10 scFv phage clone

Tests used:
[1] = target: T1, R3 (RHAMM-R3) peptide/HLA-A*02:01 complex on T2 cells (human); assay: flow cytometry, phage on T2 + R3 peptide (as the table names the samples); secondary only 109, unstained 80.9
T1 construct: Control target of the phage staining of T2 cells; also called T2 cells pulsed with R3 peptide; RHAMM 3 (R3)

[2] = target: T2, Foxp3-7 peptide/HLA-A*02:01 complex on the cell surface (human); assay: flow cytometry, phage on T2 + Foxp3-7 peptide; secondary only 104, unstained 81.7
T2 construct: also called Foxp3-7/HLA-A2 complex

[3] = target: T3, 017-mut8 peptide (…)/HLA-A*02:01 complex on T2 cells (human); assay: flow cytometry, phage on peptide-loaded T2 cells
T3 construct: Alanine mutant at position 8; also called TLI-A8

[4] = target: T4, 017-mut2 peptide (…)/HLA-A*02:01 complex on T2 cells (human); assay: flow cytometry, phage on peptide-loaded T2 cells
T4 construct: Alanine mutant at position 2, the anchor position; the peptide may load poorly onto HLA-A2; also called EXT017-mut2

[5] = target: T5, 017-mut1 peptide (…)/HLA-A*02:01 complex on T2 cells (human); assay: flow cytometry, phage on peptide-loaded T2 cells
T5 construct: Alanine mutant of Foxp3-7 at position 1, pulsed onto T2 cells; also called EXT017-mut1

[6] = target: T6, 017-mut5 peptide (…)/HLA-A*02:01 complex on T2 cells (human); assay: flow cytometry, phage on peptide-loaded T2 cells
T6 construct: Alanine mutant at position 5

[7] = target: T7, 017-mut4 peptide (…)/HLA-A*02:01 complex on T2 cells (human); assay: flow cytometry, phage on peptide-loaded T2 cells
T7 construct: Alanine mutant at position 4

[8] = target: T8, 017-mut3 peptide (…)/HLA-A*02:01 complex on T2 cells (human); assay: flow cytometry, phage on peptide-loaded T2 cells
T8 construct: Alanine mutant at position 3

[9] = target: T9, 017-mut9 peptide (…)/HLA-A*02:01 complex on T2 cells (human); assay: flow cytometry, phage on peptide-loaded T2 cells
T9 construct: Alanine mutant at position 9

[10] = target: T10, 017-mut7 peptide (…)/HLA-A*02:01 complex on T2 cells (human); assay: flow cytometry, phage on peptide-loaded T2 cells
T10 construct: Alanine mutant at position 7

[11] = target: T2, Foxp3-7 peptide/HLA-A*02:01 complex on …; assay: flow cytometry, phage on peptide-loaded T2 cells
[12] = target: T2, Foxp3-7 peptide/HLA-A*02:01 complex on …; assay: flow cytometry, phage on T2 + Foxp3-7 peptide; secondary only 133, unstained 103
[13] = target: T11, HLA-A*02:01 on T2 cells alone (no peptide added) (human); assay: flow cytometry, phage on T2 cells, no peptide
T11 construct: TAP-deficient T2 cells without pulsed peptide; negative control target, and the HLA molecule whose stabilisation by peptides is read in the T2 stabilization assay; also called HLA-A*02 molecule; HLA-A2 molecule

[14] = target: T11, HLA-A*02:01 on T2 cells alone (no …); assay: flow cytometry, phage on T2 without peptide; secondary only 100, unstained 99.5
T2+EW = target: T12, T2+EW (Homo sapiens, UniProt A*02:01); assay: flow cytometry, phage on T2 + EW peptide; secondary only 113, unstained 94.7
T12 construct: on the surface of T2 cells; irrelevant control peptide; also called EW peptide/HLA-A*02:01 complex on T2 cells; T2 pulsed with EW peptide

[15] = target: T11, HLA-A*02:01 on T2 cells alone (no …); assay: flow cytometry, phage on T2 without peptide
[16] = target: T1, R3 (RHAMM-R3) peptide/HLA-A*02:01 …; assay: flow cytometry, phage on T2 + R3 peptide; secondary only 118, unstained 91.1
[17] = target: T11, HLA-A*02:01 on T2 cells alone (no …); assay: flow cytometry, phage on T2 without peptide; secondary only 125, unstained 99.8
[18] = target: T11, HLA-A*02:01 on T2 cells alone (no …); assay: flow cytometry, phage on T2 without peptide; remark: listed apart in the source
[19] = target: T13, EXT017 (Foxp3-7) peptide/HLA-A*02:01 complex, recombinant (human); assay: SPR; printed under the head 'kd [1/s]': the heads of c3 and c4 are evidently interchanged (0.005167/1.12E+07 = 0.46 nM)
T13 construct: The BLI and SPR paragraphs only say 'EXT017 peptide/HLA-A*02:01 complex'; also called EXT017 peptide/HLA-A*02:01 complex; biotinylated single chain Foxp3p/HLA-A0201 complex

[20] = target: T13, EXT017 (Foxp3-7) peptide/HLA-A*02:01 …; assay: SPR
[21] = target: T13, EXT017 (Foxp3-7) peptide/HLA-A*02:01 …; assay: SPR; printed under the head 'ka [1/Ms]': the heads of c3 and c4 are evidently interchanged
[22] = target: T13, EXT017 (Foxp3-7) peptide/HLA-A*02:01 …; assay: SPR; printed under the head 'kd [1/s]': the heads of c3 and c4 are evidently interchanged (0.01222/5.97E+07 = 0.205 nM)

| Binder | Median:FITC-A [12] | Median:FITC-A [14] | Median:FITC-A (T2+EW) | binding result [15] | Median:FITC-A [16] | Median:FITC-A [17] | binding result [18] | also measured |
| --- | --- | --- | --- | --- | --- | --- | --- | --- |
| B1 | 1220 | 136 | 139 | no binding |  |  |  | Median:FITC-A [1]: 128; Median:FITC-A [2]: 2300; MFI [3]: 11100; MFI [4]: 96; MFI [5]: 4070; MFI [6]: 95; MFI [7]: 93.7; MFI [8]: 96.4; MFI [9]: 95.6; MFI [10]: 94.9; MFI [11]: 17100; MFI [13]: 91.3 |
| B2 |  |  |  |  | 148 | 155 | no binding |  |
| B3 | 2050 | 142 | 149 | no binding |  |  |  | Median:FITC-A [1]: 129; Median:FITC-A [2]: 2460 |
| B4 |  |  |  |  | 147 | 157 | no binding |  |
| B5 |  |  |  |  | 143 | 155 | no binding |  |
| B6 |  |  |  |  |  |  |  | kon [19]: 1.12e+07 M⁻¹ s⁻¹; Kd [20]: 462 pM; koff [21]: 0.00517 s⁻¹ |
| B7 |  |  |  |  |  |  |  | Kd [20]: 205 pM; kon [22]: 5.97e+07 M⁻¹ s⁻¹; koff [21]: 0.0122 s⁻¹ |
| B8 | 982 | 141 | 144 | no binding |  |  |  |  |
| B9 | 1130 | 149 | 151 | no binding |  |  |  |  |
